This assay addresses complement C1q (human) (UniProt P02745). In words: fluorescence polarisation.

Among the data in article PMC3767169 are change in anisotropy (Δr) values, retold here.

Chain of UniProt P02745 (P02745 23-245, chain 1 of 3): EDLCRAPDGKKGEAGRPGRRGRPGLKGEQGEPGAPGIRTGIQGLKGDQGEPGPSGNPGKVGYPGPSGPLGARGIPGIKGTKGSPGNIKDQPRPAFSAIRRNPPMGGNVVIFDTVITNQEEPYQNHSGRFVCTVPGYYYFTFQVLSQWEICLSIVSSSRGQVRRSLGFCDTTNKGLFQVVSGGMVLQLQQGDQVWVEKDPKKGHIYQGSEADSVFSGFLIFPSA
Chain of UniProt P02745 (P02746 28-253, chain 2 of 3, further chain): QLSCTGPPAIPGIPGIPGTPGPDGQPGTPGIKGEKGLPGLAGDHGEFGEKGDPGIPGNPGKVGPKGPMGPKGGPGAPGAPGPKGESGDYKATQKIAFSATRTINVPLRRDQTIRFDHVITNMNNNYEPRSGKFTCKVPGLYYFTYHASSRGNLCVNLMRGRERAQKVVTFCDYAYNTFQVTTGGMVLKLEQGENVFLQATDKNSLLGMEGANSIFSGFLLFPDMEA
Chain of UniProt P02745 (P02747 29-245, chain 3 of 3, further chain): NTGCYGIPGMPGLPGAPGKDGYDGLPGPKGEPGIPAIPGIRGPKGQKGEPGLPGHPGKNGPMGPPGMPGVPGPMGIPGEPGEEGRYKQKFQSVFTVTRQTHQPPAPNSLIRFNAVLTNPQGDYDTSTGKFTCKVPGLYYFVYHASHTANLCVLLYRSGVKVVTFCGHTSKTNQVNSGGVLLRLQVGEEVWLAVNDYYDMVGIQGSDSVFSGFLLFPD

As to “modified C-reactive protein (mCRP) (from UniProt P02741 19-224) (natural protein)”, the change in anisotropy (Δr) was determined as 0.081.
